The values below come from PMC2903388.

Assay [1] concerns the target Mouse tail tendon type I collagen homotrimer α1(I)3 (mouse) (UniProt P11087). In words: equilibrium microdialysis.
The target of assay [2] is Mouse tail tendon type I collagen heterotrimer α1(I)2α2(I) (mouse) (UniProt P11087). In words: equilibrium microdialysis.
Mouse tail tendon type I collagen heterotrimer α1(I)2α2(I) (mouse), sequence (P11087 152-1207, chain 1 of 2): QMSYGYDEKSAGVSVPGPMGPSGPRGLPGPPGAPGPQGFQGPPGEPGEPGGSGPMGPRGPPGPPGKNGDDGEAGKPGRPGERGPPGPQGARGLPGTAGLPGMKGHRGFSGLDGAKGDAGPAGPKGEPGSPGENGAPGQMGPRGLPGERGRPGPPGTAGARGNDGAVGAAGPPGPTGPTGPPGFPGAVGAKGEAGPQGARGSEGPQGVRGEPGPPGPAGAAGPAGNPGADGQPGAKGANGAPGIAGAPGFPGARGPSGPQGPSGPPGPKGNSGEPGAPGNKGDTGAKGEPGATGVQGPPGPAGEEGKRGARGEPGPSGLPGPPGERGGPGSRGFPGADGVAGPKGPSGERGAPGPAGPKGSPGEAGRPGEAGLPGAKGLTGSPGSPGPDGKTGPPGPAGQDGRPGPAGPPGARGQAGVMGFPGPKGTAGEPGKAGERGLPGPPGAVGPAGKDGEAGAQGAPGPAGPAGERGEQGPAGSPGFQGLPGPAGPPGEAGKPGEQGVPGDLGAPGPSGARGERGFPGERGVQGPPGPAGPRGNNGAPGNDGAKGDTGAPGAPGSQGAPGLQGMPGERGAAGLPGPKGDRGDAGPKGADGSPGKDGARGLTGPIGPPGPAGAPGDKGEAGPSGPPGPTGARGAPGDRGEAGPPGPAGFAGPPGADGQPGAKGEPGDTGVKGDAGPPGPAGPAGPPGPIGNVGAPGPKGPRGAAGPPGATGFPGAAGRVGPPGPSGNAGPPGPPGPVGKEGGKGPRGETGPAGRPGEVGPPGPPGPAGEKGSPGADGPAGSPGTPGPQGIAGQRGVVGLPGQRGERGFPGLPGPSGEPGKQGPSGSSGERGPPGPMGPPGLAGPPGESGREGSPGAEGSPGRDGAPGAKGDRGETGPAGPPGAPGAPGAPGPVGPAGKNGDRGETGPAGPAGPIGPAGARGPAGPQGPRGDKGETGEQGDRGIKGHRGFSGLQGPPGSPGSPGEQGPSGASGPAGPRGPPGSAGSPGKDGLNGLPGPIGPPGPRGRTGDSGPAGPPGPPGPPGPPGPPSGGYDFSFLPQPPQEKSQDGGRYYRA
Mouse tail tendon type I collagen heterotrimer α1(I)2α2(I) (mouse), sequence (Q01149 86-1125, chain 2 of 2, further chain): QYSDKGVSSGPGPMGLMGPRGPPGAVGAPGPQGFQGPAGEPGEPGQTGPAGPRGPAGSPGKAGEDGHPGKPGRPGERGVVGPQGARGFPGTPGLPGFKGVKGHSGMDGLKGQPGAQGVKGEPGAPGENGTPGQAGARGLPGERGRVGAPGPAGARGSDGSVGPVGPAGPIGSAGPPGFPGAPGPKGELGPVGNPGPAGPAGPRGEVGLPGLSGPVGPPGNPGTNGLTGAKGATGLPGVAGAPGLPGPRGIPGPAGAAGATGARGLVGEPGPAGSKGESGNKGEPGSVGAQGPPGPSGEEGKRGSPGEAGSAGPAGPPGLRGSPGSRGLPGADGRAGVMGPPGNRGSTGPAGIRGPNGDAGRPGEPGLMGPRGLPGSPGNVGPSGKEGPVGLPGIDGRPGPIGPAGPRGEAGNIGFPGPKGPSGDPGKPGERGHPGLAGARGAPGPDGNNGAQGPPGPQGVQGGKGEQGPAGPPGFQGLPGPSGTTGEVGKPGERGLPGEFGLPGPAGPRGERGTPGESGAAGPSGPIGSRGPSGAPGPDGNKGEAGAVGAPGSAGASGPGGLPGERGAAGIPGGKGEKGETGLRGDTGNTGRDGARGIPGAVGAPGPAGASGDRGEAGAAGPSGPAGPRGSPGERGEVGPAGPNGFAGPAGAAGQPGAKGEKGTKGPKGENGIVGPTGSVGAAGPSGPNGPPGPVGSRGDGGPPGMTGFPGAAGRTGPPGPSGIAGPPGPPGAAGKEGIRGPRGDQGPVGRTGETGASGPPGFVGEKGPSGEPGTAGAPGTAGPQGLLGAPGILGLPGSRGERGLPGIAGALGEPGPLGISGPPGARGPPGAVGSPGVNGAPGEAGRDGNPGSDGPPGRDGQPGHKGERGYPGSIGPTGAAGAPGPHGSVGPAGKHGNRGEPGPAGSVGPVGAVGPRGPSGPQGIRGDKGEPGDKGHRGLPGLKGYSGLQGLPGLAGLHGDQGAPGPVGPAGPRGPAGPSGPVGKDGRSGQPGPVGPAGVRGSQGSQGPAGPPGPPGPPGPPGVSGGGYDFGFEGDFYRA

Mouse tail tendon type I collagen homotrimer α1(I)3 (mouse), sequence (P11087 152-1207): as the sequence (P11087 152-1207, chain 1 of 2) above

In assay [1], “MMP-1(E200A), activated recombinant human fibroblast collagenase with Glu-200 substituted with Ala (enzyme)” had a KD, high-affinity site of 1.3 µM; a KD, low-affinity sites of more than 50 µM; a N, high-affinity site (MMP-1(E200A) per collagen triple helix) of 1. Besides, in assay [2], the KD, high-affinity site is 1.3 µM; the KD, low-affinity sites is more than 50 µM; the N, high-affinity site (MMP-1(E200A) per collagen triple helix) was found to be 1.
